Test [1] deals with Jurkat TCRb knockout cells. In words: flow cytometry, Jurkat KO (TCRb knockout) cells, negative control, 1 ug/mL. (In general: A flow cytometer gives signals particle by particle.)
Test [2] addresses Jurkat TCRb knockout cells. In words: flow cytometry, Jurkat KO (TCRb knockout) cells, negative control, 10 ug/mL.
Test [3] deals with Jurkat TCRb knockout cells. In words: flow cytometry on Jurkat KO (TCRb knockout) cells, negative control, antibody at 1 ug/ml.
The target of test [4] is Jurkat TCRb knockout cells. The test is described as follows: flow cytometry on Jurkat KO (TCRb knockout) cells, negative control, antibody at 10 ug/ml.

B1: Gemtuzumab (antibody, V domains shown)
VH: EVQLVQSGAEVKKPGSSVKVSCKASGYTITDSNIHWVRQAPGQSLEWIGYIYPYNGGTDYNQKFKNRATLTVDNPTNTAYMELSSLRSEDTAFYYCVNGNPWLAYWGQGTLVTVSS
VL: DIQLTQSPSTLSASVGDRVTITCRASESLDNYGIRFLTWFQQKPGKAPKLLMYAASNQGSGVPSRFSGSGSGTEFTLTISSLQPDDFATYYCQQTKEVPWSFGQGTKVEVKR
In the case of B1, the gMFI in test [1] was found to be 1860 gMFI; in test [2], 1830 gMFI. Further, the flow cytometry signal in test [3] worked out at 3000; in test [4] it was 2820.
